From patent US20240261333A1 (published 2024)

T1: TGM1 (human, UniProt P22735 1-817, limits assumed)
T1 construct: also called NP_000350.1
T1 sequence (looked up): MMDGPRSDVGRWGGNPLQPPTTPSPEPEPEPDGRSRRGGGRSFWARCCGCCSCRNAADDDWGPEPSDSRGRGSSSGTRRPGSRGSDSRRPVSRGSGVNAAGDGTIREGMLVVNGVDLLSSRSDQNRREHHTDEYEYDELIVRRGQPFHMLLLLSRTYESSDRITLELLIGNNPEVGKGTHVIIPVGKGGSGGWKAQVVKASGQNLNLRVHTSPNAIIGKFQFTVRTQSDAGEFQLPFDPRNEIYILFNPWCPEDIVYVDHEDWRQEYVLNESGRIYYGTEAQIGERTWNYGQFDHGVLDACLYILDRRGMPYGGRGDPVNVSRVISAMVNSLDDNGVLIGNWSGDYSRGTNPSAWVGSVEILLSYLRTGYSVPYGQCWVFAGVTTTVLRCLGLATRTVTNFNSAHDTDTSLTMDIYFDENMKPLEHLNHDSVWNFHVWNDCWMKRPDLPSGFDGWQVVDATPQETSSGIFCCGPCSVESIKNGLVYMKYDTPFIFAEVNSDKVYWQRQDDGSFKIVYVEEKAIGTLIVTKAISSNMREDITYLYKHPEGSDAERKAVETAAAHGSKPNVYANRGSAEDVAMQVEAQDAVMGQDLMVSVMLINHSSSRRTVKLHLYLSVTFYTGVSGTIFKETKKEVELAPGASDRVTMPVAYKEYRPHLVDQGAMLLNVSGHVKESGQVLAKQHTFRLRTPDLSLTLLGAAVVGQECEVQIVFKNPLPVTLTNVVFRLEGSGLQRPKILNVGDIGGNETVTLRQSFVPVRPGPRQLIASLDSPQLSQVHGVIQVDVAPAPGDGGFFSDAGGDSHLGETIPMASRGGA

T2: ATXN2L (UniProt Q8WWM7 1-1075)
T2 construct: Endogenous protein found in the co-IP by mass spectrometry; also called NP_009176.2
T2 sequence (looked up): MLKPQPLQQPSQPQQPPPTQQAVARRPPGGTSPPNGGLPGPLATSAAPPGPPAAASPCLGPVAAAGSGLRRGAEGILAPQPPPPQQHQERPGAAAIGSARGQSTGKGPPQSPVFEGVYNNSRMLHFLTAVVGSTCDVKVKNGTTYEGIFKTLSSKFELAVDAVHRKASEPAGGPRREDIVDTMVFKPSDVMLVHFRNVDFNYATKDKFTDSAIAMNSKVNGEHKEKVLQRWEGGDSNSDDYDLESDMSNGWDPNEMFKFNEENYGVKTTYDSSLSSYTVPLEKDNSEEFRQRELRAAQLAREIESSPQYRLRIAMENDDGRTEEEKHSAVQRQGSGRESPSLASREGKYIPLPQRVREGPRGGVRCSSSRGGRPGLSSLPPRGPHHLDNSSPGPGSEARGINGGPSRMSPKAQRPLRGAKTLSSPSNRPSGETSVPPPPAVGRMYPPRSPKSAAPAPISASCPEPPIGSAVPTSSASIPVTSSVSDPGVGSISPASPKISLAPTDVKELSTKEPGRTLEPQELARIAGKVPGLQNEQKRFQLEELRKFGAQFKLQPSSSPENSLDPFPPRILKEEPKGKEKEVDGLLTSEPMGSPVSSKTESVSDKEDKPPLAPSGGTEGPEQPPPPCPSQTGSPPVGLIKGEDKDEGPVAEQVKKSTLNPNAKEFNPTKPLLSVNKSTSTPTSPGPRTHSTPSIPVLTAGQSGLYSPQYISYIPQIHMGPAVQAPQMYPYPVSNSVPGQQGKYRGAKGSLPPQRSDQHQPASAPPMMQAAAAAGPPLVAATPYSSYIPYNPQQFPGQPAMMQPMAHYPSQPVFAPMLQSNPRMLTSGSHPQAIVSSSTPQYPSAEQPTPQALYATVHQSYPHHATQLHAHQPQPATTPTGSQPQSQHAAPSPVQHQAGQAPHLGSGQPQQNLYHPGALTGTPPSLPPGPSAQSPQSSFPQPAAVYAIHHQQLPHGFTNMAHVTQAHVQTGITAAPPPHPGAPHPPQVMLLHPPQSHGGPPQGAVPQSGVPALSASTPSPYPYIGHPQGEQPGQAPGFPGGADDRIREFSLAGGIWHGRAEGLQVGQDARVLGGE


How the values were obtained:
TGM1 = target: T1, TGM1; test: co-IP with anti-FLAG, C-FLAG B3GNT2, mass spectrometry
Procedure: (§1) Cells were plated in 10-cm cell culture dishes and grown to 60-80% confluency. For each condition, two biological replicates were harvested for co-IP. Cells were washed with PBS and 4 mL of lysis buffer (20 mM HEPES, 1% Triton X-100, 150 mM NaCl, 1 mM EDTA, and 10% glycerol) containing protease inhibitor cocktail was added. Cells were scraped and lysate was incubated at 4° C. under rotary agitation for 1 h. Lysate was centrifuged at 14,000×g for 10 min at 4° C. Supernatant was transferred to a new tube and an aliquot was taken as the input. […] For Western blots, 10 μg/mL Chicken Anti-FLAG (Aves labs ET-DY100) and IgY control (R&D Systems AB-101-C) antibodies were biotinylated (Thermo Fisher Scientific 90407) and added to the respective conditions. Lysates with antibodies were incubated at 4° C. under rotary agitation overnight. For each mL of lysate, 50 μL of Pierce Protein A/G Magnetic Beads (Mass spectrometry; Thermo Fisher Scientific 88803) or Pierce Streptavidin Magnetic Beads (Western blot; Thermo Fisher Scientific 88817) was washed twice with lysis buffer. Lysates with antibodies were added to the beads and incubated at 4° C. under rotary agitation for 4 h. Beads were washed with lysis buffer 3 times and resuspended in lysis buffer for storage.
(§2) Magnetic beads were resuspended in 100 mM Tris pH 7.8, reduced, alkylated and digested with trypsin at 37° ° C. overnight. This solution was subjected to solid phase extraction to concentrate the peptides and remove unwanted reagents followed by injection onto a Shimadzu HPLC with fraction collector. Eight fractions were collected and after concentration were injected on a Waters NanoAcquity HPLC equipped with a self-packed Aeris 3 μm C18 analytical column 0.075 mm by 20 cm, (Phenomenex). Peptides were eluted using standard reverse-phase gradients. The effluent from the column was analyzed using a Thermo Orbitrap Elite mass spectrometer (nanospray configuration) operated in a data dependent manner for 54 minutes. The resulting fragmentation spectra were correlated against the known database using Proteome Discover 1.4 (Thermo Fisher Scientific).

CTSD = target: T3, CTSD (UniProt P07339 65-412, limits assumed); test: co-IP with anti-FLAG, mass spectrometry; N-FLAG B3GNT2
T3 construct: Endogenous protein found in the co-IP by mass spectrometry; also called NP_001900.1
Procedure: as §1, §2

SLIRP = SLIRP (UniProt Q9GZT3 1-109); test: as above
Procedure: as §1, §2

RPL35A = RPL35A (UniProt P18077 1-110); test: as above
Procedure: as §1, §2

ATXN2L = target: T2, ATXN2L; test: as above
Procedure: as §1, §2

T3 sequence (P07339 65-412 limits assumed): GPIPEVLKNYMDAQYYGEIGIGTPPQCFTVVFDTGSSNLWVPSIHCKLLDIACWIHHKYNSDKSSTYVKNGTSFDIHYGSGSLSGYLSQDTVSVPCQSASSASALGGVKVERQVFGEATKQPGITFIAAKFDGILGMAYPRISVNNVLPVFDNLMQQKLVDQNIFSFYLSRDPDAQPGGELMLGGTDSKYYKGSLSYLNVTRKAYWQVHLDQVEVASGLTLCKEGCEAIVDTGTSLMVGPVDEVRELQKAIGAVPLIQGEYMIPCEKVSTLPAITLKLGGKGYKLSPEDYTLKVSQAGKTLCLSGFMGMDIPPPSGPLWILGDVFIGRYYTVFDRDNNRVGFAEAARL

Row | Binder | co-IP/MS count, C-term flag (TGM1) | co-IP mass spectrometry count (CTSD) | co-IP mass spectrometry count (SLIRP) | co-IP mass spectrometry count (RPL35A) | co-IP mass spectrometry count (ATXN2L)
1 | C-terminal FLAG tagged B3GNT2 (enzyme, human, UniProt Q9NY97 1-397, looked up, FLAG-tagged ORF overexpressed in A375 cells; pulled down from the lysate with mouse anti-FLAG; also called C-FLAG B3GNT2; C-term flag; not shown: C-terminal FLAG tag) MSVGRRRIKLLGILMMANVFIYFIMEVSKSSSQEKNGKGEVIIPKEKFWKISTPPEAYWNREQEKLNRQYNPILSMLTNQTGEAGRLSNISHLNYCEPDLRVTSVVTGFNNLPDRFKDFLLYLRCRNYSLLIDQPDKCAKKPFLLLAIKSLTPHFARRQAIRESWGQESNAGNQTVVRVFLLGQTPPEDNHPDLSDMLKFESEKHQDILMWNYRDTFFNLSLKEVLFLRWVSTSCPDTEFVFKGDDDVFVNTHHILNYLNSLSKTKAKDLFIGDVIHNAGPHRDKKLKYYIPEVVYSGLYPPYAGGGGFLYSGHLALRLYHITDQVHLYPIDDVYTGMCLQKLGLVPEKHKGFRTFDIEEKNKNNICSYVDLMLVHSRKPQEMIDIWSQLQSAHLKC | 8 |  |  |  | 
2 | N-terminal FLAG tagged B3GNT2 (enzyme, human, UniProt Q9NY97 1-397, looked up, FLAG-tagged ORF overexpressed in cells; bait of the anti-FLAG co-IP; also called N-FLAG B3GNT2; N-term FLAG; not shown: FLAG tag at the N-terminus) MSVGRRRIKLLGILMMANVFIYFIMEVSKSSSQEKNGKGEVIIPKEKFWKISTPPEAYWNREQEKLNRQYNPILSMLTNQTGEAGRLSNISHLNYCEPDLRVTSVVTGFNNLPDRFKDFLLYLRCRNYSLLIDQPDKCAKKPFLLLAIKSLTPHFARRQAIRESWGQESNAGNQTVVRVFLLGQTPPEDNHPDLSDMLKFESEKHQDILMWNYRDTFFNLSLKEVLFLRWVSTSCPDTEFVFKGDDDVFVNTHHILNYLNSLSKTKAKDLFIGDVIHNAGPHRDKKLKYYIPEVVYSGLYPPYAGGGGFLYSGHLALRLYHITDQVHLYPIDDVYTGMCLQKLGLVPEKHKGFRTFDIEEKNKNNICSYVDLMLVHSRKPQEMIDIWSQLQSAHLKC |  | 3 | 0 | 0 | 5
